Test: yeast display, Sf9 membrane polyspecificity reagent, FACS + sequencing; frameworks hold sequencing errors
How it was run: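 A nanobody's polyreactivity label depends on the gate it was sorted from. Yeast display cells were stained with 10% biotinylated, detergent-solubilized Sf9 membrane reagent for 1 hour at 4 °C, enriched on streptavidin microbeads and sorted by FACS. The low and high (top ~1%) gates were set on anti-HA fluorescence for expression and streptavidin fluorescence for reagent binding.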

Row | Sequence | polyreactivity (PSR sort gate)
1 | QDQLVESGGGLVQAGGSLRLSCAASGSILGHYDMGWYRPAPGKERELVAAISWSGGSTYYADSVKGRFTISRDNAKNTVYLQMNSLKPEDTAVYYCNAAAILYTSAGSLYWYDYWGQGTQVTVSS | low polyreactivity
2 | QVQLVESGGGLVQAGGSLRLSCAASGSTFYYYAMGWYRQAPGKERELVASINKIVGITDYADSVKGRFTISRDNAKNTGYLQRNSLTPEDTAVYYCAAHGRINPDVPRTDFFASEEDYWGQGTQVTVSS | low polyreactivity
3 | QVQLVESGGGLVQAGGSLRLSCAASGLTFDYYDRGGYRQAPGKERELVASITWRGSSTYYADSVKGRFTISRDNAKNTVYLQMNSLKPEDTAVYYCAARPQHFDLDLAYSGFDYWGQGTQVTVSS | high polyreactivity
4 | PVQLVESGGGLVQAGGSLRLSCAASGSIFDLNAMGWYRQAPGKERELVAAISSGGGTYYADSVKGRFTISLDNAKNTVYLQMNSLKPEDTAVYSCNRVTRGSYNYWGQGTQVTVSS | high polyreactivity
5 | QVQLVESGGGLVQAGGSLRFSCAASGFIFYRNTMGWYRQAPGKEREFVAAIRWRGGSTYYADSVKGRFTISRDNAKNTVYLQMNSLKPEDTAVYYCAADTRPGYSGFVYWGQGTQVTVSS | high polyreactivity
6 | QVQLVESGGGLVQAGGSLRLSCDASGRIFSRNSMGWYRQAPGKERELVAANTWRGGSTYYADSVKGRFTISRDNAKNTVYLQLNSLKPEDPAVYYCNRDYRQYGYAYSGRYYWGQGTQVTVSS | high polyreactivity
7 | QVQLVESGGGIVQAGGSLRLSCAASGSTFSSYAMGWYRQAPGKERELVAGITNSGGSTYYADSVKGRFTISRDNAKNTVYLQMNSLKPEDTAVYYCAAFPRTYSGYYYWGQGTQVTVSS | high polyreactivity
8 | QVQLVESGGGLVQAGGSLRLSCAASGSIFTTYAMGWYRQAPGKERELVAGITGGDSSTYADSVKGRFTISRDNAKNTVYLQMNSLKPEDTAVYYCAVDSPYQHDDYWGQGTQVTVSS | low polyreactivity
9 | QVQLVESGGGLVQAGGSLRLSCAASGFIFNAYTMGWYRKAPGKERELFAAISRRGSSTYYADSVKGRFTISRDNAMNTVYLQMNSLKPEDTAVYYCNTRLYARDDSDFDYWGQGPQVTVSS | high polyreactivity
10 | QVQLVESGGGLVQAGGSLRLSCAASGSIFSTNAIGGYRQAPGTQRELVAVITGIGGITYYADSVKGRFTISRDNAKKTVYLQRNSLKPDDTAVYYCADDPISEFSWGVKDRYDYWGQGTQVTVSS | low polyreactivity
11 | QVQLVESGGGLVEAGGSLRLSCAASGRIFKVYAMGWYRQGPGKERELVAAISRSCGSTYYADSVKGRFTISRDKAKITVSLQMNSLKPEDTAVYYCNAYFVSGHAGGYDYWGQGTQVTVSS | high polyreactivity
12 | QVQLVESGGGLVQAGGSLRLSCAASGFTFSRNTMGWYRQAPGKERELVARISASGGSTYYADSVKGRFTISRDNAKNTVYLQMNSLKPEDTAVYYCAAVYRRYGGSRYDYWGQGTQVTVSS | high polyreactivity
13 | QVQLVESGGGLVQAGGSLRLSCAASGITFIYYAMGWYRQAPGKEREFVAAISSRDDSTYYADSVKGRFTISRDNAKNTVYLQMNSLKPEDTAVYYCAAASSRRSAIKYGYWGQGTQVTVSS | high polyreactivity
14 | QVQLVESGGGLVQAGGSLRLSCAASGRIFRRYAMGWYRQAPGKERELVAAISSRGGSTYYADSVKGRFTISRDNAKNTVYLQMNSLKPEDTAVYYCNADVSASEYDYWGQGTQVTVSS | high polyreactivity
15 | QVQLVESGGGLVQAGGSLRLSCAASGYTFFFNVMGWYRQAPGKERELVAAISYSGGSTNYADSVKGRFTISRDNAKNTVYLQINSLKPEDTAVYYCNARTVSRNGYQDDYWGQGTQVTVSS | low polyreactivity
16 | QVQLVETGGGLVQAGGSLRLSCAASGGIFYPNDMGWYRQAPGKEREFVAAITSSSGSTYADSVKGRFTISRDNAKNTVYLQMNSLKPEDTAVYYCATPPDDKGGGYLGYDYWGQGTQVTVSS | low polyreactivity
17 | QVQLVESGGVLVQAGGSLPLSCAASGSTFRPNAMGWYRQAPGKERELVDGISLNGTTTYYADSVKGRFTISRDNEKNTVYIQMNSLKPVDTAVYYCSADYQFGSAAEPYVFFDPEMDYWGQGTQVTGSS | low polyreactivity
18 | QVQLVESGGGLVQAGGSLRLSCAASGSIFNYYAMGWYRQAPGKERELVAAISWNGGRTYYADSVKGRFTISRDNAKNTVYLQMNSLKPEDTAVYYCNAYPAGYVAHTYDYWGQGTQVTVSS | high polyreactivity
19 | QVQLVESGGGLVQAGGSLRLSCAASGSIFHDNAMGWYRQAPGKERELVAAINRGGSTHYADSVKGRFTISRDNAKNTVYLQMNSLKPEDTAVYYCAADGFRPEVGYWGQGTQVTVSS | low polyreactivity
20 | QVQLVDSGGGLVQAGGSLRLSCSASGIIFRYYTMVWYRQDPGKERELVASISRSGGNTYYADSVKGRFTISRDNAMNTVYLQMNSLKPEDTAVYYCAARRHQKYQESNYWGQGTQVTVSS | high polyreactivity
21 | QVQLVESGGGLVQAGGSLRLSCAASGRTFYVNAMGWYRQAPGKEMELVAAITNGGRTNYADSVKGRFTISRDNAKNTVYLQMNSLKPEDTAVYYCNKVSLRTQSAQFHYWGQGTQVTVSS | high polyreactivity
22 | QVQLVESGGGLVQAGGSLRLSCAASGSIFRHNAMGWYRQAPGKERELVAAISRRASSTYYADSVKGRFTISRDNAKNTVYVQMNSLKPEDTAVYYCAVVPSSTYHAYDYWGQGTQVTVSS | high polyreactivity

Row | Sequence | polyreactivity (PSR sort gate)
23 | QVQLVESGGGLVQAGGSLRLSCAASGSTSYGYAMGWYRQAPGKERELVAAISYSGSSTYYADSVKGRFTISRDNAKNTVYLQMNSLKPEDTAVYYCNAKVYPGVGPKHRYDYWGQGTQVTVSS | low polyreactivity
24 | QVQLVESGGGLVLAGGSLPLSCAASGSIIWRNAMGWSRHAPVKERELVAAITWNGGSTYYADSVKGCFTSSRDNAKNTVYLQMNSLIPEDTAVYYSAARCEYPYDYWGQGSQVTVSS | low polyreactivity
25 | QVQLVESGGGLVQAGGSLRLSCAASGYIFTDKVMGWYIQAPGKERELVAAITYSAASTYYADSVKGRFTISRDNAKNTVYLQMNSLKPEDTAVYYCATEYYIGVNYRGDYWGQGTQVTVSS | low polyreactivity
26 | QVQLVESGGGLVHAGGSLLLSCAASGFISSRYAMGWYRQAPGKERELVAAISRGGGSTYYADSVKGRFTISRDNAKNSVYLQMNSLKPEYTAVYYCAAAARGSPQYDYWGQGSQVTVSS | high polyreactivity
27 | QVQLVESGGGLVQAGGSLRLSCAASGLTLTYYAMGWYRQAPGKERELVAAISRSGGSTHYADSVKGRFTISRDNAKNTVYLQMNSLKPEDTAVYYCNAQQGRYWSAKGYDYWGQGTQVTVSS | high polyreactivity
28 | QVQLVESGGGLYQAGGSLRLSCAASGRIFATNAMRWSRQAPGKERELVATITRSAGRTYYADSVKGRFTISRDNAKNTVYLQMNSLKPEDTAVYYCAASYWDTEPGYREYDYWGQGTQVTVSS | low polyreactivity
29 | QVQLVESGGGLVQAGGSLRLSCAASGSIFKYYAMGWYRKAPGKERELVAAISYRVGRTYYADSVKGRFTISRDNAKNTVYLQMNSLKPEDTAVYYCNTAYLSGQEYDYWGQGTQVTVSS | high polyreactivity
30 | QVQLVESGGGLVQAGGSLRVSCAASGRIVWPNTMGWSRQAPGKERELVAAISWSGGSTYYADSVKGRFTISRDNAKNTVYLHRNSLKPEHTAVYSCAKRPPHYSWPKIIDFGSWGQGTQVTVSS | high polyreactivity
31 | QVQLVEAGGGLVQAGGSLRLSCAASGRIFYYYAMGWYSQAPGKEREFVAAIRISGGSKNYADSVKGRFTISRDNAKNNVYLQMNSLKPEETAVYYSAARSKYSGIRRAYDYWGQGTQVTVSS | high polyreactivity
32 | QVQLVESVGGLVQAGGSLRLSCAASGRIIRWYAMGWYRQAPGKERELVAAISGSGGSTYYADSVKGRFTISRDNAKNTVYLQMNSLKPEDTAVYYGAAGYYLRRYYYWGQGTQVTVSS | high polyreactivity
33 | QVQLVESGGGLVQAGGSLRLSCAASGRTFWVYAMGWYRQAPGKERELVAGISSGASTYYADSVKGRFTISRDNAKNTVYLQMNSLKPEDTAVYYCAAPYYRLTGWSRYDYWGQGTQVTVSS | high polyreactivity
34 | QVQLVESGGCLVQAGGSLRLSCADSGLTFTHYTKGWYRQAPGKVRELVAAITTSGGSTYYADSVKGRFTISRDNAKNTVYLQMNSLKPEDTAVYDCDSDVWYWTYIGEYWGQGTQVTVSS | high polyreactivity
35 | QVQLVESGGGLVQAGGSLRLSCAASGRIFASYVMGWYRQAPGKERELVAAISYGGSRTYYADSVKGRFTISRDNAKNTVYLQMNSLKPEDTAVYYCNARSKFYYHYWMDYWGQGTQVTVSS | high polyreactivity
36 | QVQLVESGGGLVQAGGSLRLSCAASGYTFSLYAMGWYRQAPGKERELVAAISSGDRTFYADSVKGRFTISRDNAKNTVYLQMNSLKPEDTAVYYCAARRYYVASIYRYDSWGQGTQVTVSS | high polyreactivity
37 | QVQLVESGGGLVQAGGSLRLSCAASGSTISGNAMGWYRQAPGKERELVAAISQSGGSTYYADSVKGRFTISRDNAKNTVYLQMNSLKPEDTAVYYCNRLYYFLARRMDSWGQGTQVTVSS | high polyreactivity
38 | QVQLQESDGGLVQAGGSLRLSCAASGSISPQYYMGWYRQEPGKEREYVAISKGTTTYYADSVKGRLTISRVNAKNTVYLQMNRLKPEDTAVYCCAAGRWLQKVHAYWDQGTQVTVSS | low polyreactivity
39 | QVQLVESGGRLVQAGGSLRLLCAASGLILHKYAMGWYRQAPGKERELVASINSGANTNYADSVKGRFTISRDNAKNTVYLQMNSLKPEDTAVYYCNADPGFRSGDYGYSSFDYGGQGTQVTVSS | low polyreactivity
40 | QVQLVESAGGLVQAGGSLRLSCAASGITFSYYTMGWYRQAPGKEREFVATIRRGGSTNYADSVKGRFTISRDNAKNTVYLQMNSLKPEDTAVYYCAADLRRNGWGFDYWGQGTQVTVSS | high polyreactivity
41 | QVQLVESGGGFFQAGGSLRLSCAASGTIGRNAMGWYRQAPGKESEFVPAISYRGTSTYYADSVKGRFTISRDNAKNTVYLQMKSLKPDDTAVYYCATYWAAGYRSRYDYWGQVTQVTVSS | high polyreactivity
42 | QVQLVESGGGLVQAGGSLRLSCAASGRIFSPYVMGWYRQAPGKERELVAAITGSGGSTYYADSVKGRFTISRDNAKKTVYLQMNSLKPEDTAVYYCAVVSRTTAMDYRGQGTQVTVSS | high polyreactivity
43 | QVQLVESGGGLVKAGGSLRLSCAASGRIFYWYALGWYRQAPGKEREFVAVISQGGGSTRYADSVKGRFTISRDNAKNTVYLHMNSLKPEDTAVYYCAASHSRWRQGYGYWGQGTQVTVSS | high polyreactivity
